We go through one protein from article PMC7251641.

What is called Km is the substrate concentration at which the rate is half of its maximum.

Substrate in the data set: Nc1ncnc2c1ncn2[C@@H]1O[C@H](COP(=O)(O)OP(=O)(O)OP(=O)(O)O)[C@@H](O)[C@H]1O
Briefly: real-time fluorescent phosphate-release ATPase assay. The data set is classed as biochemical, Saccharomyces cerevisiae. The following applies: nucleosome-stimulated, 15 nM nucleosomes, 23 °C.

B1: SWI/SNF (Saccharomyces cerevisiae S288C) (protein)
chain: MNIPQRQFSNEEVNRCYLRWQHLRNEHGMNAPSVPEFIYLTKVLQFAAKQRQELQMQRQQQGISGSQQNIVPNSSDQAELPNNASSHISASASPHLAPNMQLNGNETFSTSAHQSPIMQTQMPLNSNGGNNMLPQRQSSVGSLNATNFSPTPANNGENAAEKPDNSNHNNLNLNNSELQPQNRSLQEHNIQDSNVMPGSQINSPMPQQAQMQQAQFQAQQAQQAQQAQQAQQAQARLQQGRRLPMTMFTAEQSELLKAQITSLKCLVNRKPIPFEFQAVIQKSINHPPDFKRMLLSLSEFARRRQPTDQNNQSNLNGGNNTQQPGTNSHYNNTNTDNVSGLTRNAPLDSKDENFASVSPAGPSSVHNAKNGTLDKNSQTVSGTPITQTESKKEENETISNVAKTAPNSNKTHTEQNNPPKPQKPVPLNVLQDQYKEGIKVVDIDDPDMMVDSFTMPNISHSNIDYQTLLANSDHAKFTIEPGVLPVGIDTHTATDIYQTLIALNLDTTVNDCLDKLLNDECTESTRENALYDYYALQLLPLQKAVRGHVLQFEWHQNSLLTNTHPNFLSKIRNINVQDALLTNQLYKNHELLKLERKKTEAVARLKSMNKSAINQYNRRQDKKNKRLKFGHRLIATHTNLERDEQKRAEKKAKERLQALKANDEEAYIKLLDQTKDTRITHLLRQTNAFLDSLTRAVKDQQKYTKEMIDSHIKEASEEVDDLSMVPKMKDEEYDDDDDNSNVDYYNVAHRIKEDIKKQPSILVGGTLKDYQIKGLQWMVSLFNNHLNGILADEMGLGKTIQTISLLTYLYEMKNIRGPYLVIVPLSTLSNWSSEFAKWAPTLRTISFKGSPNERKAKQAKIRAGEFDVVLTTFEYIIKERALLSKVKWVHMIIDEGHRMKNAQSKLSLTLNTHYHADYRLILTGTPLQNNLPELWALLNFVLPKIFNSVKSFDEWFNTPFANTGGQDKIELSEEETLLVIRRLHKVLRPFLLRRLKKDVEKELPDKVEKVVKCKMSALQQIMYQQMLKYRRLFIGDQNNKKMVGLRGFNNQIMQLKKICNHPFVFEEVEDQINPTRETNDDIWRVAGKFELLDRILPKLKATGHRVLIFFQMTQIMDIMEDFLRYINIKYLRLDGHTKSDERSELLRLFNAPDSEYLCFILSTRAGGLGLNLQTADTVIIFDTDWNPHQDLQAQDRAHRIGQKNEVRILRLITTNSVEEVILERAYKKLDIDGKVIQAGKFDNKSTSEEQEALLRSLLDAEEERRKKRESGVEEEEELKDSEINEILARNDEEMAVLTRMDEDRSKKEEELGVKSRLLEKSELPDIYSRDIGAELKREESESAAVYNGRGARERKTATYNDNMSEEQWLRQFEVSDDEKNDKQARKQRTKKEDKSEAIDGNGEIKGENIDADNDGPRINNISAEDRADTDLAMNDDDFLSKKRKAGRPRGRPKKVKLEGSENSEPPALESSPVTGDNSPSEDFMDIPKPRTAGKTSVKSARTSTRGRGRGRGRGRGRGRGRGRPPKARNGLDYVRTPAAATSPIDIREKVAKQALDLYHFALNYENEAGRKLSDIFLSKPSKALYPDYYMIIKYPVAFDNINTHIETLAYNSLKETLQDFHLIFSNARIYNTEGSVVYEDSLELEKVVTKKYCEIMGDNSQLDFTEFDEQYGTRPLVLPPVVTSSVAESFTDEADSSMTEASV
Turning to B1, the Km worked out at 80.5 µM.
